Target: T1, human TGFßRII (antigen of the Octet experiments) (human, UniProt P37173 23-166)
Test: BLI (Octet)

T1 sequence (P37173 23-166): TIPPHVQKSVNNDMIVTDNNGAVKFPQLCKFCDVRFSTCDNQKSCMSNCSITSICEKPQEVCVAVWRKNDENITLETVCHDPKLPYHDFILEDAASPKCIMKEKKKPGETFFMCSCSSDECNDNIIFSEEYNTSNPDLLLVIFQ

Kd [nM]	Binder
0.374	H1.21 L1 XENP35103 (antibody, V domains shown) VH: QLQVQESGPGLVKPSETLSLTCTVSGGSISNSAFSWGWIRQPPGKGLEWIGSFYYGEKTYYNPSLKSRATISIDTSKSQFSLKLSSVTAADTAVYYCPRGPTMIRGVIDSWGQGTLVTVSS VL: EIVLTQSPATLSLSPGERATLSCRASQSVRSYLAWYQQKPGQAPRLLIYDASNRATGIPARFSGSGSGTDFTLTISSLEPEDFAVYYCQQRSNWPPTFGQGTKVEIK
0.112	H1 L1 XENP34287 (antibody, V domains shown) VH: QLQVQESGPGLVKPSETLSLTCTVSGGSISNSYFSWGWIRQPPGKGLEWIGSFYYGEKTYYNPSLKSRATISIDTSKSQFSLKLSSVTAADTAVYYCPRGPTMIRGVIDSWGQGTLVTVSS VL: EIVLTQSPATLSLSPGERATLSCRASQSVRSYLAWYQQKPGQAPRLLIYDASNRATGIPARFSGSGSGTDFTLTISSLEPEDFAVYYCQQRSNWPPTFGQGTKVEIK
0.352	H1.1 L1 XENP34288 (antibody, V domains shown) VH: QLQVQESGPGLVKPSETLSLTCTVSGGSISNSYFSWGWIRQPPGKGLEWIGSFYYGEKTYYNPSLKSRATISIDTSKSQFSLKLSSVTAADTAVYYCPRGPTVIRGVIDSWGQGTLVTVSS VL: EIVLTQSPATLSLSPGERATLSCRASQSVRSYLAWYQQKPGQAPRLLIYDASNRATGIPARFSGSGSGTDFTLTISSLEPEDFAVYYCQQRSNWPPTFGQGTKVEIK

Target: T1, human TGFßRII (antigen of the Octet …)
Test: BLI (Octet)
Remark: another data set of the same source

Binder	Kd [nM]
H1 L1.45 XENP34608 (antibody, V domains shown) VH: QLQVQESGPGLVKPSETLSLTCTVSGGSISNSYFSWGWIRQPPGKGLEWIGSFYYGEKTYYNPSLKSRATISIDTSKSQFSLKLSSVTAADTAVYYCPRGPTMIRGVIDSWGQGTLVTVSS VL: not shown	0.604
H1 L1.55 XENP34618 (antibody, V domains shown) VH: QLQVQESGPGLVKPSETLSLTCTVSGGSISNSYFSWGWIRQPPGKGLEWIGSFYYGEKTYYNPSLKSRATISIDTSKSQFSLKLSSVTAADTAVYYCPRGPTMIRGVIDSWGQGTLVTVSS VL: EIVLTQSPATLSLSPGERATLSCRASQSVRSYLAWYQQKPGQAPRLLIYDASNRATGIPARFSGSGSGTDFTLTISSLEPEDFAVYYCQQRSNWPITFGQGTKVEIK	38
H1 L1.47 XENP34610 (antibody, V domains shown) VH: QLQVQESGPGLVKPSETLSLTCTVSGGSISNSYFSWGWIRQPPGKGLEWIGSFYYGEKTYYNPSLKSRATISIDTSKSQFSLKLSSVTAADTAVYYCPRGPTMIRGVIDSWGQGTLVTVSS VL: EIVLTQSPATLSLSPGERATLSCRASQSVRSYLAWYQQKPGQAPRLLIYDASNRATGIPARFSGSGSGTDFTLTISSLEPEDFAVYYCQQRSQWPPTFGQGTKVEIK	0.296
H1 L1.53 XENP34616 (antibody, V domains shown) VH: QLQVQESGPGLVKPSETLSLTCTVSGGSISNSYFSWGWIRQPPGKGLEWIGSFYYGEKTYYNPSLKSRATISIDTSKSQFSLKLSSVTAADTAVYYCPRGPTMIRGVIDSWGQGTLVTVSS VL: EIVLTQSPATLSLSPGERATLSCRASQSVRSYLAWYQQKPGQAPRLLIYDASNRATGIPARFSGSGSGTDFTLTISSLEPEDFAVYYCQQRSNYPPTFGQGTKVEIK	0.596
H1 L1.56 XENP34619 (antibody, V domains shown) VH: QLQVQESGPGLVKPSETLSLTCTVSGGSISNSYFSWGWIRQPPGKGLEWIGSFYYGEKTYYNPSLKSRATISIDTSKSQFSLKLSSVTAADTAVYYCPRGPTMIRGVIDSWGQGTLVTVSS VL: EIVLTQSPATLSLSPGERATLSCRASQSVRSYLAWYQQKPGQAPRLLIYDASNRATGIPARFSGSGSGTDFTLTISSLEPEDFAVYYCQQRSNWPLTFGQGTKVEIK	0.001
H1 L1.46 XENP34609 (antibody, V domains shown) VH: QLQVQESGPGLVKPSETLSLTCTVSGGSISNSYFSWGWIRQPPGKGLEWIGSFYYGEKTYYNPSLKSRATISIDTSKSQFSLKLSSVTAADTAVYYCPRGPTMIRGVIDSWGQGTLVTVSS VL: EIVLTQSPATLSLSPGERATLSCRASQSVRSYLAWYQQKPGQAPRLLIYDASNRATGIPARFSGSGSGTDFTLTISSLEPEDFAVYYCQQRSSWPPTFGQGTKVEIK	0.666

Results, then the binder that gave them:

Kd [nM]	Binder
0.642	H1 L1.61 XENP34624 (antibody, V domains shown) VH: QLQVQESGPGLVKPSETLSLTCTVSGGSISNSYFSWGWIRQPPGKGLEWIGSFYYGEKTYYNPSLKSRATISIDTSKSQFSLKLSSVTAADTAVYYCPRGPTMIRGVIDSWGQGTLVTVSS VL: EIVLTQSPATLSLSPGERATLSCRASQSVRSYLAWYQQKPGQAPRLLIYDASNRATGIPARFSGSGSGTDFTLTISSLEPEDFAVYYCQQRSNWPPTFGQGTKLEIK
0.311	H1 L1.59 XENP34622 (antibody, V domains shown) VH: QLQVQESGPGLVKPSETLSLTCTVSGGSISNSYFSWGWIRQPPGKGLEWIGSFYYGEKTYYNPSLKSRATISIDTSKSQFSLKLSSVTAADTAVYYCPRGPTMIRGVIDSWGQGTLVTVSS VL: EIVLTQSPATLSLSPGERATLSCRASQSVRSYLAWYQQKPGQAPRLLIYDASNRATGIPARFSGSGSGTDFTLTISSLEPEDFAVYYCQQRSNWPPTFGGGTKVEIK
0.888	H1 L1.60 XENP34623 (antibody, V domains shown) VH: QLQVQESGPGLVKPSETLSLTCTVSGGSISNSYFSWGWIRQPPGKGLEWIGSFYYGEKTYYNPSLKSRATISIDTSKSQFSLKLSSVTAADTAVYYCPRGPTMIRGVIDSWGQGTLVTVSS VL: EIVLTQSPATLSLSPGERATLSCRASQSVRSYLAWYQQKPGQAPRLLIYDASNRATGIPARFSGSGSGTDFTLTISSLEPEDFAVYYCQQRSNWPPTFGPGTKVEIK

Target: Cyno (cynomolgus monkey)
Test: Octet

Kd [nM]	Binder
11.3	XENP37385 – αCD5 (Cd5-A) x αTGFßRII (bispecific antibody) heavy: EVQLKESGAELVRPGGSVKISCKGSGYTFTNFAIHWVKQSHIKTLEWIGLISTSSGDVSYNQKFKDKATMTVDKSSSTAYMELARLTSEDSAIYYCARHYGANNYFDYWGQGTLVTVSSASTKGPSVFPLAPSSKSTSGGTAALGCLVKDYFPEPVTVSWNSGALTSGVHTFPAVLQSSGLYSLSSVVTVPSSSLGTQTYICNVNHKPSDTKVDKKVEPKSCDKTHTCPPCPAPPVAGPSVFLFPPKPKDTLMISRTPEVTCVVVDVKHEDPEVKFNWYVDGVEVHNAKTKPREEEYNSTYRVVSVLTVLHQDWLNGKEYKCKVSNKALPAPIEKTISKAKGQPREPQVYTLPPSREEMTKNQVSLTCDVSGFYPSDIAVEWESDGQPENNYKTTPPVLDSDGSFFLYSKLTVDKSRWEQGDVFSCSVMHEALHNHYTQKSLSLSPGK scFv-Fc: QLQVQESGPGLVKPSETLSLTCTVSGGSISNSYFSWGWIRQPPGKGLEWIGSFYYGEKTYYNPSLKSRATISIDTSKSQFSLKLSSVTAADTAVYYCPRGPTVIRGVIDSWGQGTLVTVSSGKPGSGKPGSGKPGSGKPGSEIVLTQSPATLSLSPGERATLSCRASQSVRSYLAWYQQKPGQAPRLLIYDASNRATGIPARFSGSGSGTDFTLTISSLEPEDFAVYYCQQRSNWPPTFGQGTKVEIKEPKSSDKTHTCPPCPAPPVAGPSVFLFPPKPKDTLMISRTPEVTCVVVDVKHEDPEVKFNWYVDGVEVHNAKTKPREEQYNSTYRVVSVLTVLHQDWLNGKEYKCKVSNKALPAPIEKTISKAKGQPREPQVYTLPPSREQMTKNQVKLTCLVKGFYPSDIAVEWESNGQPENNYKTTPPVLDSDGSFFLYSKLTVDKSRWQQGNVFSCSVMHEALHNHYTQKSLSLSPGK light: EIVLTQSPTIMSASPGEQVTMTCRTNSSVSSSYLHWYQQKSGASPKLWIYGTSNLASGVPTRFSGSGSGTSYSLTISSVEAGDAATYFCQQYSGYPLTFGGGTKVEIKRTVAAPSVFIFPPSDEQLKSGTASVVCLLNNFYPREAKVQWKVDNALQSGNSQESVTEQDSKDSTYSLSSTLTLSKADYEKHKVYACEVTHQGLSSPVTKSFNRGEC
0.74	XENP37388 – αCD5 (Cd5-B) x αTGFßRII (bispecific antibody) heavy: QVTLKESGAELVRPGASVKLSCKASGYSFTSYWMNWVKQRPGQGLEWIGMIHPSDSETRLNQKFKDKATLTVDKSSSTAYMQLSSPTSEDSAVYYCARWGDHDDAMDFWGQGTMVTVSSASTKGPSVFPLAPSSKSTSGGTAALGCLVKDYFPEPVTVSWNSGALTSGVHTFPAVLQSSGLYSLSSVVTVPSSSLGTQTYICNVNHKPSDTKVDKKVEPKSCDKTHTCPPCPAPPVAGPSVFLFPPKPKDTLMISRTPEVTCVVVDVKHEDPEVKFNWYVDGVEVHNAKTKPREEEYNSTYRVVSVLTVLHQDWLNGKEYKCKVSNKALPAPIEKTISKAKGQPREPQVYTLPPSREEMTKNQVSLTCDVSGFYPSDIAVEWESDGQPENNYKTTPPVLDSDGSFFLYSKLTVDKSRWEQGDVFSCSVMHEALHNHYTQKSLSLSPGK scFv-Fc: QLQVQESGPGLVKPSETLSLTCTVSGGSISNSYFSWGWIRQPPGKGLEWIGSFYYGEKTYYNPSLKSRATISIDTSKSQFSLKLSSVTAADTAVYYCPRGPTVIRGVIDSWGQGTLVTVSSGKPGSGKPGSGKPGSGKPGSEIVLTQSPATLSLSPGERATLSCRASQSVRSYLAWYQQKPGQAPRLLIYDASNRATGIPARFSGSGSGTDFTLTISSLEPEDFAVYYCQQRSNWPPTFGQGTKVEIKEPKSSDKTHTCPPCPAPPVAGPSVFLFPPKPKDTLMISRTPEVTCVVVDVKHEDPEVKFNWYVDGVEVHNAKTKPREEQYNSTYRVVSVLTVLHQDWLNGKEYKCKVSNKALPAPIEKTISKAKGQPREPQVYTLPPSREQMTKNQVKLTCLVKGFYPSDIAVEWESNGQPENNYKTTPPVLDSDGSFFLYSKLTVDKSRWQQGNVFSCSVMHEALHNHYTQKSLSLSPGK light: DIVLTQSPASLSASVGESVTITCRPSENIYGYFAWYQQRQGKSPQLLVYNAKTLAEGVPSRFSGSGSGTHFSLKINSLQPEDFGTYYCQHHYGTPFTFGPGTKVDIKRTVAAPSVFIFPPSDEQLKSGTASVVCLLNNFYPREAKVQWKVDNALQSGNSQESVTEQDSKDSTYSLSSTLTLSKADYEKHKVYACEVTHQGLSSPVTKSFNRGEC
